Data: patent US20020028453A1 (CURIS, published 2002)

Biological target: T1, α-2 macroglobulin (Homo sapiens (Human), UniProt P01023 24-1474, Native alpha-2-macroglobulin is a glycosylated homotetramer (disulfide-linked dimers) with an internal thioester; one subunit is given.)
T1 construct: also called alpha-2 macroglobulin
T1 sequence: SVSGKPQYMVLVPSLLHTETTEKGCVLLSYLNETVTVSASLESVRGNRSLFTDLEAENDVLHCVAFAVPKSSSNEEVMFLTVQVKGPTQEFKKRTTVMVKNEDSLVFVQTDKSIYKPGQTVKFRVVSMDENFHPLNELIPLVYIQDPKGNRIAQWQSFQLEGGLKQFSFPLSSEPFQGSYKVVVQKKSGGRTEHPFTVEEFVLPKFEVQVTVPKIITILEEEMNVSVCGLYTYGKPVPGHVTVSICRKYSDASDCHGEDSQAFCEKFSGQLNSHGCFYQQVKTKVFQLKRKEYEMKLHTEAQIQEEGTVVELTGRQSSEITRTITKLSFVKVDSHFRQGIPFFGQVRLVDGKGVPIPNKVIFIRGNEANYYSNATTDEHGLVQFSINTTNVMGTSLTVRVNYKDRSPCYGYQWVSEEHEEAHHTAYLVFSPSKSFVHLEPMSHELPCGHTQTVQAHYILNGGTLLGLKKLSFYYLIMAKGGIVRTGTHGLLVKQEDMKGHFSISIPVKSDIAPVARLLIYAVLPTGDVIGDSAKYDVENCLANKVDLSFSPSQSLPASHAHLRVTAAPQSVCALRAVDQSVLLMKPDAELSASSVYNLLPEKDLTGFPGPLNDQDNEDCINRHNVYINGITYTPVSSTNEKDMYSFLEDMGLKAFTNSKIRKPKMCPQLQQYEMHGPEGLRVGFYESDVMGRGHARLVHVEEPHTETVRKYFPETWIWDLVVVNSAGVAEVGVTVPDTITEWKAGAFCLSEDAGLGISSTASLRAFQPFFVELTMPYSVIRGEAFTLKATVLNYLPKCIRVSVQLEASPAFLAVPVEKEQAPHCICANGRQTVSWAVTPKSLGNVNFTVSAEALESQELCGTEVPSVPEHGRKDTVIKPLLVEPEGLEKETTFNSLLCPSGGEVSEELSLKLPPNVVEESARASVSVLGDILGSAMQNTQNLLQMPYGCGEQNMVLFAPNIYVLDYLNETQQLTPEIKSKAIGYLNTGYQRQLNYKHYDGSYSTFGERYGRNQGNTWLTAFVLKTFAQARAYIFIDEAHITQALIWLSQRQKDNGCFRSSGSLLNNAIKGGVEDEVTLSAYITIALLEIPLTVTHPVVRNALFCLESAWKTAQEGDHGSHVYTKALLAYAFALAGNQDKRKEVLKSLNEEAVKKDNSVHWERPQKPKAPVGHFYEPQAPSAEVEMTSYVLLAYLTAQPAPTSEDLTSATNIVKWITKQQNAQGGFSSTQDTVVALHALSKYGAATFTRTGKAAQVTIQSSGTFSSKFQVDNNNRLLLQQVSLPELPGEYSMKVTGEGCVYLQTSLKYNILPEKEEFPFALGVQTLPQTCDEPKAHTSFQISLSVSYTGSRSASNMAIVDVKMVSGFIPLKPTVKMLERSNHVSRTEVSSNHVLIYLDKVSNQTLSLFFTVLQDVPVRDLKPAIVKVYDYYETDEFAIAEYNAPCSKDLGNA
Test: competition binding assay, immobilized α-2 macroglobulin
Method: OP-1 was determined to interact specifically with α-2 macroglobulin in a standard competition binding assay, using immobilized, commercially available α-2 macroglobulin, and labeled and unlabeled OP-1 protein. […] This N-terminal portion of the protein, which is not part of the crystal structure, is positively charged and likely is highly flexible in solution.

B1: Truncated mature OP-1 (ligand, UniProt P18075 315-431, looked up)
chain: MANVAENSSSDQRQACKKHELYVSFRDLGWQDWIIAPEGYAAYYCEGECAFPLNSYMNATNHAIVQTLVHFINPETVPKPCCAPTQLNAISVLYFDDSSNVILKKYRNMVVRACGCH
notes: range 23-139; The range is on mature-protein numbering (His 139 = C-terminus); also called truncated mature OP-1 (first 22 amino acids cleaved by trypsin)
fold less affinity (against untruncated OP-1): 10 fold
